Columns and labels:
[1] = molecular target: T1, soluble-type human DSG3-mouse IgG2aFc fusion protein (human; mouse, UniProt P32926 50-616); assay: SPFS sandwich; immobilized DF151, detection D219-3; antigen 1,000 pg/mL (µg/mL in the source)
T1 construct: also called human desmoglein 3; desmoglein 3 standard; not shown: mouse IgG2a Fc, printed 'mouse IgG2aFc' and 'mouse IgG2 constant region'
T1 sequence: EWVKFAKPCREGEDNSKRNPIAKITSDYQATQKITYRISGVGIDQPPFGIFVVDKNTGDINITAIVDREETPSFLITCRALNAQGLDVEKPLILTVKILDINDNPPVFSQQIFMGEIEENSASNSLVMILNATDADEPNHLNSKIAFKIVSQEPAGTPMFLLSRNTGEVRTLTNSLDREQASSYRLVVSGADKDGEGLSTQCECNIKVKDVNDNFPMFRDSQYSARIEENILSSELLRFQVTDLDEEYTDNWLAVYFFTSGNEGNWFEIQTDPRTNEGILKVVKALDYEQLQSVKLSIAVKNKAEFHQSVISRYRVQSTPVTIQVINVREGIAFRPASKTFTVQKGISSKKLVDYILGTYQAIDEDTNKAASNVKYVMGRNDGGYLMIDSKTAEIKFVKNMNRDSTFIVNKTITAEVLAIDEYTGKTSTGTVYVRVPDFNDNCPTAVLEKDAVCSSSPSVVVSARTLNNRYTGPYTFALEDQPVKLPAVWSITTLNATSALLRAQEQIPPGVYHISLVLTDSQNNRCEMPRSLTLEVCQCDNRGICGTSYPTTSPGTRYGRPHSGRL
Method: (§1) Once again, a Tris-buffered saline (TBS) containing 0.05% by mass of Tween 20 was fed and circulated in the flow path for 10 minutes to wash the flow path. Then, with the flow path being filled with PBS buffer (pH 7.4), the assay area was irradiated with laser light (640 nm, 40 μW) from the back side of the metal thin films, and the fluorescence intensity was measured using a photomultiplier tube (PMT) arranged above the assay area. The thus measured value was defined as “signal” (S) at a desmoglein 3 concentration of 100 μg/mL.
(§2) On another front, the fluorescence intensity was also measured by the same procedures as described above, except that a PBS solution containing no desmoglein 3 (0 μg/mL) was fed in place of the PBS solution containing 100 μg/mL of desmoglein 3. The thus measured value was defined as “noise” (N).
(§3) Further, the fluorescence intensity was measured by the same procedures as described above, except that the desmoglein 3 concentration of the fed PBS solution was changed to 10,000 μg/mL, 5,000 μg/mL, 1,000 μg/mL, 200 μg/mL, 50 μg/mL, 10 μg/mL, 3.16 μg/mL, 1 μg/mL, 0.316 μg/mL, 0.1 μg/mL and 0.031 μg/mL. The thus measured values were each defined as “signal” (S) at the respective concentrations.

[2] = molecular target: T1, soluble-type human DSG3-mouse IgG2aFc …; assay: SPFS sandwich; immobilized DF151, detection MAB1720; antigen 1,000 pg/mL (µg/mL in the source)
Method: as §1, §2, §3

[3] = molecular target: T1, soluble-type human DSG3-mouse IgG2aFc …; assay: sandwich ELISA, luminescence over blank; immobilized DF151, detection DF151; antigen 1 pg/mL
Method: (§4) Subsequently, the antigen solutions having the above-described concentrations were each added to the plate in an amount of 50 μL/well, and the plate was incubated at room temperature for 1 hour. Then, the antigen solution was removed, and the plate was washed with 0.05% Tween 20-PBS three times. Thereafter, the 1-μg/mL biotinylated antibody solution was added in an amount of 50 μL/well, and the plate was incubated at room temperature for 1 hour.
(§5) Then, after removing the streptavidin-HRP solution and washing the plate with 0.05% Tween 20-PBS three times, a substrate solution (SuperSignal ELISA Femto Maximum Sensitivity Substrate (registered trademark); Pierce Biotechnology, Inc.) was added in an amount of 100 μL/well. One minute thereafter, the luminescence intensity was measured using a luminometer, Fluoroskan Ascent FL (trade name, Thermo Electron Corporation).
(§6) The numerical values shown in Table 1 represent the minimum values of the antigen solution concentration having an S/N ratio of higher than 2 (hereinafter, referred to as “detection limit concentration”) and the unit of the numerical values is pg/mL. The S/N ratio was determined by dividing the luminescence intensity at the respective antigen solution concentrations ([…]) by the luminescence intensity of an antigen-free blank antigen solution (0 μg/mL).

[4] = molecular target: T1, soluble-type human DSG3-mouse IgG2aFc …; assay: sandwich ELISA, luminescence over blank; immobilized DF151, detection DF151; antigen 10 pg/mL
Method: as §4, §5
The numerical values shown in Table 1 represent the minimum values of the antigen solution concentration having an S/N ratio of higher than 2 (hereinafter, referred to as “detection limit concentration”) and the unit of the numerical values is pg/mL. […]

[5] = molecular target: T1, soluble-type human DSG3-mouse IgG2aFc …; assay: sandwich ELISA, luminescence over blank; immobilized DF151, detection DF151; antigen 200 pg/mL
Method: as §4, §5, §6

[6] = molecular target: T1, soluble-type human DSG3-mouse IgG2aFc …; assay: sandwich ELISA, luminescence over blank; immobilized DF151, detection DF151; antigen 5000 pg/mL
Method: as §4, §5, §6

[7] = molecular target: T1, soluble-type human DSG3-mouse IgG2aFc …; assay: sandwich ELISA, luminescence over blank; immobilized DF151, detection DF151; antigen 25000 pg/mL
Method: as §4, §5, §6

[8] = molecular target: T1, soluble-type human DSG3-mouse IgG2aFc …; assay: sandwich ELISA, luminescence over blank; immobilized DF151, detection MAB1720; antigen 25000 pg/mL
Method: as §4, §5, §6

S/N ratio [1]: 24.4
S/N ratio [2]: 60.8
S/N ratio [3]: 0.9
S/N ratio [4]: 0.9
S/N ratio [5]: 1.2
S/N ratio [6]: 11.1
S/N ratio [7]: 55.2
S/N ratio [8]: 82.2
B1: DF151 (DF151[I] antibody) (antibody, mouse IgG2b, kappa, V domains shown)
VH: EVQLQQSGPELVKPGASVKISCKASGYSFTAYYMHWVKQSPEKCLEWIGQINPSTGGTTYNQKFKAKATLTVDKSSSTAYMQLKSLTSEDSAVYYCARWGDSWGQGTTLTVSS
VL: DIVLTQSPASLAVSLGQSVTISCRASESVEYYGTSLMQWYQQKPGQPPKLLIYGASDVESGVPARFSGSGSGTDFSLNIHPVEEDDIAMYFCQQSRKVPYTFGSGTKLEIKR
notes: Complete antibody; Biotinylated as detection antibody in ELISA; labeled with Alexa Fluor 647 as detection antibody in SPFS; also called DF151 antibody
